Experiments:
Test in all cases: ELISA, variant from culture supernatant on Ni-NTA plate
[1] = biological target: T1, RB94 sc9 DS-CAV1 A149C-Y458C L373R Long
T1 construct: also called DS2-v22
Description: (§1) Initial assessment of all constructs were performed using a 96-well microplate format for high throughput expression followed by an ELISA-based antigenic evaluation as described previously 17. […] Plasmid DNA and TrueFect-Max (United BioSystems, MD) were mixed and added to the growing cells, and the 96-well plate incubated at 37° C., 5% CO2. One day post transfection, enriched medium (high glucose DMEM plus 25% ultra-low IgG fetal bovine serum, 2× nonessential amino acids, 1× glutamine) was added to each well, and the 96-well plate was returned to the incubator for continuous culture.

[2] = biological target: 391-2-DS-Cav1_ I28C-G464C
Description: as §1

[3] = biological target: T2, 391-2-DS-Cav1-sc9deleteFS 99C-362C
T2 construct: also called DS2-v16
Description: as §1

[4] = biological target: T3, 391-2-DS-Cav1-sc9 100C-361C
T3 construct: also called DS2-v19
Description: as §1

[5] = biological target: T4, RB94 DS-CAV1 T369C-T455C Long
T4 construct: also called DS2-v32
Description: as §1

[6] = biological target: T5, RB94 sc9 DS-CAV1 A149C-Y458C L373R Long S190V
T5 construct: also called DS2-v30
Description: as §1

[7] = biological target: T6, 391-2-DS-Cav1-sc9deleteFS 100C-362C
T6 construct: also called DS2-v21
Description: as §1

[8] = biological target: T7, 391-2-DS-Cav1_ sc9_S398C-S485C
T7 construct: also called DS2-v23
Description: as §1

[9] = biological target: T8, 391-2-DS-Cav1_ sc9_S485C-A490C
T8 construct: also called DS2-v28
Description: as §1

[10] = biological target: T9, 391-2-DS-Cav1-sc9deleteFS 98C-361C
T9 construct: also called DS2-v8
Description: as §1

[11] = biological target: T10, RB94 hu/bov DS-Cav1 Long FdPL;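 further: antigenic evaluation by ELISA of constructs expressed at small scale in 96-well plates after transient plasmid transfection of cells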
T10 construct: also called sc-v20
Description: as §1

Row | Binder | ELISA binding value [1] | ELISA binding value [2] | ELISA binding value [3] | ELISA binding value [4] | ELISA binding value [5] | ELISA binding value [6] | ELISA binding value [7] | ELISA binding value [8] | ELISA binding value [9] | ELISA binding value [10] | ELISA binding value [11]
1 | D25 antibody (antibody, V domains shown, also called mAb D25) VH: QVQLVQSGAEVKKPGSSVMVSCQASGGPLRNYIINWLRQAPGQGPEWMGGIIPVLGTVHYAPKFQGRVTITADESTDTAYIHLISLRSEDTAMYYCATETALVVSTTYLPHYFDNWGQGTLVTVSS VL: DIQMTQSPSSLSAAVGDRVTITCQASQDIVNYLNWYQQKPGKAPKLLIYVASNLETGVPSRFSGSGSGTDFSLTISSLQPEDVATYYCQQYDNLPLTFGGGTKVEIK | 0.158 | 0.139 | 0.197 | 0.181 | 0.129 | 0.133 | 0.16 | 0.144 | 0.136 | 0.271 | –
2 | MPE8 antibody (antibody, V domains shown, also called mAb MPE8) VH: EVQLVESGGGLVKPGGSLRLSCAASGFTFSSYSMNWVRQAPGKGLEWVSSISASSSYSDYADSAKGRFTISRDNAKTSLFLQMNSLRAEDTAIYFCARARATGYSSITPYFDIWGQGTLVTVSS VL: QSVVTQTPSVSGAPGQRVTISCTGSSSNIGAGYDVHWYQQLPGTAPKLLIYDNNNRPSGVPDRFSASKSGTSASLAITGLQAEDEADYYCQSYDRNLSGVFGTGTKVTVL | 0.0692 | 0.0815 | 0.2 | 0.173 | 0.0667 | 0.0477 | 0.0757 | 0.0849 | 0.0579 | 0.43 | 1.38

Reference: US20190330277A1 (PIRBRIGHT INSTITUTE, published 2019)
